Key:
lipoxygenase = lipoxygenase (Gaeumannomyces tritici, UniProt Q8X150); test: Determination of substrate specificity (Michaelis-Menten kinetics, hydroperoxide formation at 234 nm); settings: lipoxygenase produced as in Example 4, standard assay, 25° C., pH 7.0
Experimental: (§1) The lipoxygenase activity was determined spectrophotometrically at 25° C. by monitoring the formation of hydroperoxides. […] The enzyme was typically diluted sufficiently to ensure a turn-over of maximally 10% of the added substrate within the first minute. The absorbance at 234 nm was followed and the rate was estimated from the linear part of the curve. One unit causes an increase in absorbance at 234 nm of 0.001/min.
(§2) The substrate specificity of the lipoxygenase was studied using the standard assays condition with a number of different compounds as substrate. All substrates were produced as dispersions with 0.2%(v/v) Tween20. The amount of compound added to make up these stock solutions was determined by mass, since viscosity made accurate measurement of volume impossible. The limiting rate constant and the specificity constant were determined by varying the amount of substrate added in the assays. The resulting rates were plotted against the concentration of substrate used. Finally, the plots were fitted by non-linear least squares regression to the theoretical hyperbolic curve of the Michaelis-Menten equation. The cis-trans-conjugated hydro(pero)xy fatty acids were assumed to have a molecular extinction coefficient of 23,000 M^−1 cm^−1.
(§3) The activity of lipoxygenase produced as in Example 4 was tested on various substrates as described above. The results are expressed as kcat (or Vmax), KM and kcat/KM according to the Michaelis-Menten equation:

[1] = tested on: CCCCC/C=C\C/C=C\C/C=C\C/C=C\CCCC(=O)O; test: purified protein, by the assay type; settings: other: lipoxygenase produced as in Example 4, standard assay, 25° C., pH 7.0
Experimental: as §1, §2, §3

[2] = tested on: CCCCC/C=C\C/C=C\CCCCCCCC(=O)OC; test: purified protein, by the assay type; settings: other: lipoxygenase produced as in Example 4, standard assay, 25° C., pH 7.0
Experimental: as §1, §2, §3

[3] = tested on: CCCCC/C=C\C/C=C\CCCCCCCCO; test: purified protein, by the assay type; settings: other: lipoxygenase produced as in Example 4, standard assay, 25° C., pH 7.0
Experimental: as §1, §2, §3

Sequence of lipoxygenase (Q8X150 17-618): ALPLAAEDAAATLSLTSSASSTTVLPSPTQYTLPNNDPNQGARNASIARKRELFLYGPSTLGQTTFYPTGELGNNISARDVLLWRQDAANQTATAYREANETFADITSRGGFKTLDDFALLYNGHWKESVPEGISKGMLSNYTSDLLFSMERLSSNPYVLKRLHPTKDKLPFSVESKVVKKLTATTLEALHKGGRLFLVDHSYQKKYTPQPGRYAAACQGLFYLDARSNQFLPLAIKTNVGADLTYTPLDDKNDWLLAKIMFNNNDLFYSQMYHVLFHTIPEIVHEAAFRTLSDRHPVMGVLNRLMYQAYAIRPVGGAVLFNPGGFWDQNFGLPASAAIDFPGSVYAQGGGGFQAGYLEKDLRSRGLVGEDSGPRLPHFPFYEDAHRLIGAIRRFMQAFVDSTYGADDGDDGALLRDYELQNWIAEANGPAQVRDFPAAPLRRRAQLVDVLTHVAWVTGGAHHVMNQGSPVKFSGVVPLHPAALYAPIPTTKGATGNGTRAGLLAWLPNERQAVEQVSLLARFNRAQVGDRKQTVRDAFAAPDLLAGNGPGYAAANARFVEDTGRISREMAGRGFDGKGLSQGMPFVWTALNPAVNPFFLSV

| Compound | kcat (lipoxygenase; kcat (or Vmax)) [micro-mol/min/mg] | Km (lipoxygenase) [µM] | Km [1] [µM] | Km [2] [µM] | Km [3] [µM] |
| --- | --- | --- | --- | --- | --- |
| CCCCC/C=C\C/C=C\CCCCCCCC(=O)O [Linoleic acid] | 5.63 | 6.8 |  |  |  |
| lipoxygenase (Gaeumannomyces tritici) |  |  | 17.5 | 164 | 3.4 |

Reference: patent US7456001B2, “Lipoxygenase” (Novozymes A/S, priority 2000, dated 2008)
